Our source for the Kd values is PMC2119780.

The target of the assay is fibronectin receptors (alpha5beta1) on the adherent CHO cell line (Chinese hamster (endogenous in CHO)). Nature of the assay: radioligand binding.

For “human plasma fibronectin (ligand; labeled with 125Iodine (modified Chloramine-T procedure) in the binding assays)”, the Kd stood at 95 nM.

For orientation: Kd means a measure of binding affinity in units of concentration. High values mean weaker binding, low ones tighter binding.
